Results: publication PMC7010297, “How the initiating ribosome copes with ppGpp to translate mRNAs” (PLoS Biology, 2020)
Where “and” joins values, the source holds several entries; their conditions need not be identical. Equal values may be shown once. Read-outs that look alike come from different tables or passages of the source.

How the values were obtained:
IF2-bound 30S IC = target: T1, IF2-bound 30S IC (Escherichia coli, UniProt P0A705); experiment: 30S IC formation by MST, guanosine nucleotide titration; format: binding; conditions: for MST Average / MST Replicates: Fig 6E; for Kd: Fig 3F, GTP titration;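 as to MST Average: lower thermophoresis signal means Bpy-tRNAi dissociation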
T1 construct: 6xHis (N); made in house
From the text: To monitor the interaction of initiator tRNA and 30S ribosomal subunits, we used Microscale Thermophoresis (MST) with a fluorescently labelled initiator tRNA (Bpy-tRNAi) (Fig 1B). MST allows to measure fluorescence in a constrained space. Changes on the readout derive from molecular drifts resulting from small thermal equilibrium perturbations. Upon equilibrium perturbations, the patterns of Bpy-tRNAi migration away from the observation space are related to bound and unbound states (Fig 1B). […] On the contrary, a decrease in thermophoresis indicated the dissociation of Bpy-tRNAi. The relation between fluorescence measured at both equilibriums (Ff to Fi, after and prior to the perturbation, respectively) as a function of ligand concentration allowed to determine dissociation constants of the interaction (Fig 1C).
Continuous lines indicate nonlinear regression fittings with a quadratic equation. Three measurements were performed; mean and standard deviation are plotted (S1 Data). (B) as (A) to measure the concentration dependence for each tested guanosine nucleotide at constant IF2 (1 μM). […] Continuous lines show best fits using exponential functions. (D) Formation of 70S IC as measured by Bpy-tRNAi accommodation in the P site of the ribosome; 0.1 μM 30S ICs were formed with Bpy-tRNAi and rapidly mixed with 0.3 μM 50S subunits on a stopped-flow apparatus as described in [14]. Colors are as in (C). Continuous lines show best fits using an exponential function for a single reaction step. Each stopped-flow trace results from the mean of 5 to 7 replicates.
(§1) MST was calculated from the respective fluorescence time dependencies (S3 Fig). […] Symbols as in (B). […] Continuous lines indicate nonlinear regression fittings with quadratic (B and E) or same-site competition (G) functions. Three measurements were performed; mean and standard deviations are plotted (S1 Data).

30S-bound IF2 (30S IC) = target: T2, 30S-bound IF2 (30S IC) (Escherichia coli, UniProt P0A705); experiment: ppGpp (or GDP) to GTP competitive assay for 30S IC formation by MST; format: binding; conditions: S4G Fig
T2 construct: 6xHis (N); made in house
Experimental: as §1
[…] Symbols are as indicated, 3 measurements were performed, and mean and standard deviation are plotted (S1 Data). Continuous lines show nonlinear regression fittings with a same-site inhibition model. […] (PDF) Click here for additional data file.

B1: mTufA: TufA mRNA with full-length 5′ UTR, in vitro transcribed, codes for EF-Tu (nucleic acid)
chain: GGUUCUAUCGCCUUUAAAGAAGGCUUUAAGAAAGCGAAACCAGUUCUGCUUGAGCCGAUCAUGAAGGUUGAAGUAGAAACUCCGGAAGAGAACACCGGUGACGUUAUCGGUGACUUGAGCCGUCGUCGUGGUAUGCUCAAAGGUCAGGAAUCUGAAGUUACUGGCGUUAAGAUCCACGCUGAAGUACCGCUGUCUGAAAUGUUCGGAUACGCAACUCAGCUGCGUUCUCUGACCAAAGGUCGUGCAUCAUACACUAUGGAAUUCCUGAAGUAUGAUGAAGCGCCGAGUAACGUUGCUCAGGCCGUAAUUGAAGCCCGUGGUAAAUAAGCCUAAGGGUUAAUACCAAAGUCCCGUGCUCUCUCCUGAAGGGGAGAGCACUAUAGUAAGGAAUAUAGCCGUGUCUAAAGAAAAAUUUGAACG
IF2-bound 30S IC; GTP 0.49 μM
  MST Average: 1014.52 a.u.
  MST Replicates: 1011.10 a.u. and 1014.70 a.u. and 1017.78 a.u.
IF2-bound 30S IC; GTP 1.95 μM
  MST Average: 1035.39 a.u.
  MST Replicates: 1032.39 a.u. and 1034.94 a.u. and 1038.85 a.u.
IF2-bound 30S IC; GTP 3.91 μM
  MST Average: 1049.68 a.u.
  MST Replicates: 1044.99 a.u. and 1049.25 a.u. and 1054.80 a.u.
IF2-bound 30S IC; GTP 7.81 μM
  MST Average: 1070.36 a.u.
  MST Replicates: 1070.17 a.u. and 1070.71 a.u. and 1070.18 a.u.
IF2-bound 30S IC; read-out: Kd (μM) of GTP for the 30S IC programmed with the labelled mRNA, Average
  Kd: 0.28 µM
IF2-bound 30S IC; read-out: Kd (μM) of GTP for the 30S IC programmed with the labelled mRNA, single replicate
  Kd: 0.3 µM and 0.27 µM
30S-bound IF2 (30S IC); Log [GDP] 0.29
  MST Avg: 1108.89 a.u.
  MST Replicates: 1106.67 a.u. and 1109.49 a.u. and 1110.53 a.u.
30S-bound IF2 (30S IC); Log [GDP] 0.59
  MST Avg: 1108.25 a.u.
  MST Replicates: 1104.73 a.u. and 1108.81 a.u. and 1111.20 a.u.
30S-bound IF2 (30S IC); Log [GDP] 0.89
  MST Avg: 1106.94 a.u.
  MST Replicates: 1105.25 a.u. and 1107.28 a.u. and 1108.30 a.u.
30S-bound IF2 (30S IC); Log [GDP] 1.19
  MST Avg: 1104.11 a.u.
  MST Replicates: 1101.85 a.u. and 1104.36 a.u. and 1106.13 a.u.
30S-bound IF2 (30S IC); Log [GDP] 1.49
  MST Avg: 1094.23 a.u.
  MST Replicates: 1091.94 a.u. and 1094.86 a.u. and 1095.88 a.u.
30S-bound IF2 (30S IC); Log [GDP] 1.80
  MST Avg: 1077.93 a.u.
  MST Replicates: 1075.66 a.u. and 1079.00 a.u. and 1079.14 a.u.
30S-bound IF2 (30S IC); Log [GDP] 2.10
  MST Avg: 1056.10 a.u.
  MST Replicates: 1053.33 a.u. and 1057.00 a.u. and 1057.97 a.u.
30S-bound IF2 (30S IC); Log [GDP] 2.40
  MST Avg: 1017.56 a.u.
  MST Replicates: 1014.74 a.u. and 1018.61 a.u. and 1019.33 a.u.
30S-bound IF2 (30S IC); Log [GDP] 2.70
  MST Avg: 975.78 a.u.
  MST Replicates: 973.53 a.u. and 976.74 a.u. and 977.08 a.u.
